From patent publication US11306156 come the findings set out here.

Test [1] addresses D3H44 light chain Q124E_L135W_Q160E_T180E. As to the kind of experiment: LCCA, SPR tag readout, L1:L2 DNA 1:3 normalized to 1:1; competitor m23.
Test [2] shares this target. As to the kind of experiment: LCCA, SPR tag readout, L1:L2 DNA 1:9 normalized to 1:1; competitor m23.
For test [3] the target is unchanged. As to the kind of experiment: LCCA, SPR tag readout, L1:L2 DNA 1:9 normalized to 1:1; competitor m25.
Test [4] shares this target. As to the kind of experiment: LCCA, SPR tag readout, L1:L2 DNA 1:3 normalized to 1:1; competitor m25.
In test [5] the target is D3H44 light chain F116A_Q124R_L135V. As to the kind of experiment: LCCA, SPR tag readout, L1:L2 DNA 1:9 normalized to 1:1; competitor m24.
In test [6] the target is D3H44 light chain F116A_Q124R_L135V_T178R. The description is as above.
Test [7] concerns the target D3H44 light chain F116A_Q124R_L135V. As to the kind of experiment: LCCA, SPR tag readout, L1:L2 DNA 1:3 normalized to 1:1; competitor m24.
The target in test [8] is D3H44 light chain F116A_Q124R_L135V_T178R. Described as above.
Test [9] concerns the target tissue factor (TF) antigen (UniProt P13726). As to the kind of experiment: SPR (ProteOn XPR36), Fab captured on anti-penta-His surface, TF as analyte; reference wild-type D3H44 Fab.
Test [10] has the same target. As to the kind of experiment: SPR (ProteOn XPR36), Fab captured on anti-penta-His surface, TF as analyte, 1:1 fit.
Test [11] shares this target. As to the kind of experiment: SPR (ProteOn XPR36), His-tagged Fab captured on anti-penta His, TF as analyte, 1:1 fit; batch C (+).
For test [12] the target is unchanged. As to the kind of experiment: SPR (ProteOn XPR36), His-tagged Fab captured on anti-penta His, TF as analyte; against wild-type D3H44 Fab; batch C (+).
The target is the same in test [13]. As to the kind of experiment: SPR as for KD; reference: wild-type D3H44 Fab.
For test [14] the target is unchanged. As to the kind of experiment: SPR, ProteOn XPR36; His-tagged Fab captured on anti-penta-His, TF injected; 1:1 fit.
Test [15] has the same target. As to the kind of experiment: SPR, against wild-type D3H44 Fab.
Test [16] has the same target. As to the kind of experiment: SPR (ProteOn XPR36), Fab captured on anti-penta-His, TF injected, 1:1 fit.
The target is the same in test [17]. As to the kind of experiment: SPR; log change of median KD against wild-type D3H44 Fab. For orientation: Surface plasmon resonance follows binding to a sensor surface in real time, without labels.
For test [18] the target is unchanged. As to the kind of experiment: SPR, Fab captured by anti-penta-His, TF injected, 1:1 fit.

Usually Kd stands for the equilibrium constant for the complex coming apart. Higher therefore signals weaker binding.

Turning to D3H44 Fab heavy chain A139G_Q179K_V190A, the H1L1:H1L2 normalized median ratio turned out to be 87% in test [1]; 86% in test [2]; 91% in test [3]; 85% in test [4]; 9% in [5]; 14% in [6]. The values for the H1L1:H1L2 normalized median ratio in test [7] and in test [8] were 15% and 13%, respectively. In addition, the H1L1:H1L2 normalized median scalar value ln(r1/f1) in [1] is 1.88; in [2], 1.85; in test [3] it was 2.31; in [4] it was 1.71.
Take “D3H44 Fab heavy chain A139W_L143E_K145T_Q179E”: the H1L1:H1L2 normalized median ratio in test [1] was 2%; in test [2], 3%; in [3] it was 5%; in test [4], 3%; in test [5] it was 95%; in test [6] it was 97%. The H1L1:H1L2 normalized median ratio in test [7] is 97%; in test [8] it was 98%. Also, the H2L2:H2L1 normalized median ratio in test [1] is 2%; in [2] it was 3%; in test [3] it was 5%; in test [4], 3%; in test [5], 95%; in test [6] it was 97%. For the same substance, the H2L2:H2L1 normalized median ratio in test [7] was 97%; in test [8], 98%. Moreover, the H1L1:H1L2 normalized median scalar value ln(r1/f1) in test [5] worked out at 2.96; in [6], 3.38; in [7], 3.66; in [8], 3.79.
For D3H44 Fab heavy chain Q179K, the H2L2:H2L1 normalized median ratio in test [1] turned out to be 88%; in test [2], 87%; in test [3] it was 80%; in test [4] it was 77%; in [5] it was 20%; in test [6], 13%. Besides, the values for the H2L2:H2L1 normalized median ratio in [7] and in [8] were 23% and 12%, respectively.
Substance “D3H44 Fab heterodimer H1 L124R_H172T / L1 V133G_N137K_S174R_S176D” returned a Change in median values of KD of h1l1 Fab heterodimer compared to wild type (-(log(KD design)-log(KD wt))) in test [9] of -0.16. The same substance gave a Kd in test [10] of 230 pM.
In [9], “D3H44 Fab heterodimer H1 L124W_L143E_K145T_Q179E / L1 Q124R_V133A_S176T_T178R” returned a Change in median values of KD of h1l1 Fab heterodimer compared to wild type (-(log(KD design)-log(KD wt))) of -0.13. Further, in test [10], the Kd is 210 pM.
As to “D3H44 Fab heterodimer, H1 L143E_K145T_P175C_Q179E / L1 Q124R_S162C_T178R (H1L1 Fab of LCCA Set # 9613)”, the Kd in test [11] was found to be 120 pM. Besides, in test [12], the Change in median values of KD of h1|1 Fab heterodimer compared to wild type (-(log(KD design)-log(KD wt))) was determined as 0.12.
For “D3H44 Fab heterodimer, H1 Q39E_L143E_K145T / L1 Q38R_Q124R_Q160K_T178R (H1L1 Fab of LCCA Set # 9817)”, the Kd in test [11] stood at 180 pM. In [12], this substance came in with a Change in median values of KD of h1|1 Fab heterodimer compared to wild type (-(log(KD design)-log(KD wt))) of -0.05.
The substance “D3H44 Fab heterodimer, H1 Q39R_D146G_Q179K / L1 Q38E_Q124E_Q160E_T180E (H1L1 Fab of LCCA Set # 9822)” displayed a dissociation constant (Kd) in [11] of 110 pM. Moreover, in test [12], the Change in median values of KD of h1|1 Fab heterodimer compared to wild type (-(log(KD design)-log(KD wt))) is 0.17.
As to “D3H44 Fab heterodimer, H1 Q39R_S186R / L1 Q38E_Q124E_Q160E_T180E (H1L1 Fab of LCCA Set # 9828)”, the dissociation constant Kd in test [11] stood at 140 pM. In test [12], the Change in median values of KD of h1|1 Fab heterodimer compared to wild type (-(log(KD design)-log(KD wt))) amounted to 0.07.
As to “D3H44 Fab heterodimer, H1 S186R / L1 Q38E_Q124E_Q160E_T180E (H1L1 Fab of LCCA Set # 9905)”, the Kd in [11] came out at 100 pM. For the same substance, the Change in median values of KD of h1|1 Fab heterodimer compared to wild type (-(log(KD design)-log(KD wt))) in [12] is 0.2.
With “D3H44 Fab heterodimer, H1L1 of LCCA Set # 9568 (H1 L124W_L143F; L1 V133A_S176T_T178L)”, in test [13], the change in median KD compared to wild type, -(log(KD design)-log(KD wt)) was -0.28. For the same substance, the dissociation constant (Kd) in [14] amounted to 300 pM.
“D3H44 Fab heterodimer, H1L1 of LCCA Sets # 9057, 9056 and 9055 (H1 A139G_V190A; L1 L135W_S176L)” came in with a change in median KD compared to wild type, -(log(KD design)-log(KD wt)) in [13] of -0.02. The substance further returned a Kd in test [14] of 160 pM.
For “D3H44 Fab heterodimer, H1L1 of LCCA Sets # 9567 and 9566 (H1 L124W_L143F; L1 V133A)” the same measures were -0.21 and 250 pM.
In the case of “D3H44 Fab heterodimer, H1L1 of LCCA Sets # 9692, 9696, 9688, 9702 and 9700 (H1 L143E_K145T_Q179E_S188L; L1 Q124R_T178R)”, in test [13], the change in median KD compared to wild type, -(log(KD design)-log(KD wt)) is -0.34. In addition, in test [14], the Kd was determined as 340 pM.
In test [15], “H1L1 Fab heterodimer of LCCA Set # 9068 (D3H44 Fab; H1 F174G, L1 S131T_S176F_T178F)” came in with a Change in median values of KD of h1l1 Fab heterodimer compared to wild type (-(log(KD design)-log(KD wt))) of 0.07. This substance registered a Kd in test [16] of 130 pM.
The corresponding values for “H1L1 Fab heterodimer of LCCA Set # 9070 (D3H44 Fab; H1 F174G, L1 S131T_S176F_T178Y)” are 0 and 160 pM.
The corresponding values for “H1L1 Fab heterodimer of LCCA Set # 9073 (D3H44 Fab; H1 F174V, L1 S131T_S176F_T178Y)” are 0.04 and 140 pM.
For “H1L1 Fab heterodimer of LCCA Set # 9074 (D3H44 Fab; H1 H172R_Q179K, L1 Q124E_Q160E_T180E)” the same measures were -0.01 and 160 pM.
For the substance “H1L1 Fab heterodimer of LCCA Set # 9569 (D3H44 Fab; H1 L124W_L143F, L1 V133A_S176T_T178L)”, in test [15], the Change in median values of KD of h1l1 Fab heterodimer compared to wild type (-(log(KD design)-log(KD wt))) is -0.28. The substance further yielded an equilibrium dissociation constant (Kd) in [16] of 300 pM.
For the substance “H1L1 Fab heterodimer of LCCA set 9058 (D3H44 Fab, H1 A139W_L143E_K145T_Q179E, L1 F116A_Q124R_L135V)”, the Change in median values of KD of h1l1 Fab heterodimer compared to wild type (-(log(KD design)-log(KD wt))) in test [17] amounted to 0.12 log units. This substance also had a Kd in [18] of 120 pM.
The corresponding values for “H1L1 Fab heterodimer of LCCA sets 9078, 9077 and 9076 (D3H44 Fab, H1 H172T_Q179K, L1 Q124E_N137K_Q160E_S174R_T180E)” are 0.01 log units and 150 pM.
For “H1L1 Fab heterodimer of LCCA sets 9574 and 9573 (D3H44 Fab, H1 L143A_Q179K, L1 Q124E_V133Y_T180E)” the same measures were -0.23 log units and 270 pM.
The substance “H1L1 Fab heterodimer of LCCA sets 9721, 9720, 9723, 9722, 9725, 9716, 9712 and 9708 (D3H44 Fab, H1 L143E_K145T_S188L, L1 Q124R_Q160K_T178R)” registered a Change in median values of KD of h1l1 Fab heterodimer compared to wild type (-(log(KD design)-log(KD wt))) in test [17] of -0.19 log units. Moreover, in test [18], the Kd amounted to 240 pM.
